Measured values from paper PMC5362816, “Calmodulin is responsible for Ca^2+-dependent regulation of TRPA1 Channels” (Scientific Reports, 2017).

Columns and labels:
CaM-agarose (Sigma) = target: T1, CaM-agarose (Sigma) (UniProt P62157 1-149, coupled to agarose); test: pull-down; competition: purified GST-C1A1 fragment on CaM-agarose with 200 μM peptide (CaMBD peptide, scrambled peptide or CALP2); details: both partners purified
T1 construct: calmodulin coupled to agarose, bought from Sigma; Commercial reagent; also called calmodulin; source: bought: Sigma (CaM-agarose)

pure CaM (Sigma) = target: T2, pure CaM (Sigma) (UniProt P62157 1-149); test: native gel or EMSA; 600 nM CaM incubated with different molar ratios of peptide; 10 mM Na-HEPES pH 7.2, 2 mM Ca2+, room temperature, 1 h; 12% non-denaturing PAGE with 2 mM Ca2+; silver staining (read-out: CaM band intensity, no mobility shift); details: both partners purified
T2 construct: pure calmodulin bought from Sigma; also called calmodulin; source: bought: Sigma

- binding result (CaM-agarose (Sigma)): binds
- binding result (pure CaM (Sigma)): binds
B1: CaMBD peptide (peptide)
peptide: LWYLRKVDQRSTIVYPN
notes: also called WT peptide; the 17AA; source: synthetic peptide (Biomatik)
